Results taken from paper doi:10.1101/2024.07.01.601590.

Target: Fluorescently labelled Asgard ESCRT-IIIB (Heimdallarchaeota archaeon AB_125), full length (Heimdallarchaeota archaeon AB_125)
Assay: TIRF microscopy on supported lipid bilayers

Row | time to reach plateau | Substance
1 | > 1000 s | Fluorescently labelled Asgard ESCRT-IIIB (Heimdallarchaeota archaeon AB_125), full length (natural protein)
2 | 160 s | Fluorescently labelled Asgard ESCRT-IIIA (Heimdallarchaeota archaeon AB_125), full length (natural protein)
